Assay results from publication PMC5359911.

How the values were obtained:
[1] = biological target: smooth muscle tropomyosin, purified α/β heterodimer of chicken gizzard Tpm1.4 and Tpm2.1 (chicken); assay: SPR; BIAcore X100; Tpm amine-coupled to CM5 chip; SMTNL1-TMB 0.12-10 uM injected; 20 mM HEPES pH 7.5, 100 mM KCl, 1 mM DTT, 0.005% Tween-20; 25 C; n = 3
[2] = biological target: SMTNL1-TMB, Tpm-binding region of smoothelin-like 1 protein (amino acids 195-459), unphosphorylated (UniProt Q99LM3); assay: pull-down; competition, apo-CaM: SMTNL1-TMB premixed with Tpm (equimolar or other molar ratios) for 1 h at 4 C, then added to CaM-Sepharose with 1 mM EDTA
[3] = biological target: smooth muscle tropomyosin, purified α/β heterodimer of chicken gizzard Tpm1.4 and Tpm2.1 (chicken); assay: pull-down; Tpm covalently bound to CNBr-activated Sepharose (40 uL); 200 ug SMTNL1-TMB; 20 mM Tris-HCl pH 7.5, 0.1% beta-mercaptoethanol, 2 h at 4 C; washed with 150 mM NaCl; Coomassie stain, densitometry

SMTNL1-TMB, Tpm-binding region of smoothelin-like 1 protein (amino acids 195-459), unphosphorylated (from UniProt Q99LM3 195-459) (domain or fragment)
Kd [1]: 3000 nM

smooth muscle tropomyosin, purified α/β heterodimer of chicken gizzard Tpm1.4 and Tpm2.1 (complex)
percent reduction of SMTNL1-TMB binding to apo-CaM-Sepharose by equimolar Tpm [2]: 60%

SMTNL1-TMB phosphorylated at Ser301 with PKA (from UniProt Q99LM3 195-459) (domain or fragment)
fold recovered against unphosphorylated SMTNL1-TMB [3]: 2 fold | Kd [1]: 320 nM
